Source: patent US20190105403A1 (STCUBE, published 2019)

What was measured:
[1] = target: T1, human PD-L1 4NQ (N35Q/N192Q/N200Q/N219Q), fully unglycosylated variant, expressed on BT549 cells (human, UniProt Q9NZQ7 19-290); assay: flow cytometry on BT549 cells overexpressing PD-L1 4NQ (mixed with WT cells), FITC secondary antibody
T1 construct: In the Western blots the protein was in cell lysate; also called 4NQ PD-L1; unglycosylated PD-L1 4NQ mutant
T1 chain: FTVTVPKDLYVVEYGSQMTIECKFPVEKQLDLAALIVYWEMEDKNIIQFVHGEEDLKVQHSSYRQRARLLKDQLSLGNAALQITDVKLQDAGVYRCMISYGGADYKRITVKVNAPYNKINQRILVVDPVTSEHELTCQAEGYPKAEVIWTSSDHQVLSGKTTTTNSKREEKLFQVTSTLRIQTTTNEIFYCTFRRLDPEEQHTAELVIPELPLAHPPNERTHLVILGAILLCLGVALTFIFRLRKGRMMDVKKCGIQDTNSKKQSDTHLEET

[2] = target: T2, human PD-L1 wild type (glycosylated), expressed on cells (human, UniProt Q9NZQ7 19-290, N-glycosylated at N35, N192, N200 and N219); assay: flow cytometry on BT549 cells overexpressing PD-L1 WT (biotin labeled, mixed with 4NQ cells), FITC secondary antibody
T2 construct: Endogenous on NCI-H226, A431 and MDA-MB231 cells and transfected into 4T1 cells in the functional assays; In the Western blots the protein was in cell lysate; also called PD-L1 WT; WT PD-L1
T2 sequence (Q9NZQ7 19-290): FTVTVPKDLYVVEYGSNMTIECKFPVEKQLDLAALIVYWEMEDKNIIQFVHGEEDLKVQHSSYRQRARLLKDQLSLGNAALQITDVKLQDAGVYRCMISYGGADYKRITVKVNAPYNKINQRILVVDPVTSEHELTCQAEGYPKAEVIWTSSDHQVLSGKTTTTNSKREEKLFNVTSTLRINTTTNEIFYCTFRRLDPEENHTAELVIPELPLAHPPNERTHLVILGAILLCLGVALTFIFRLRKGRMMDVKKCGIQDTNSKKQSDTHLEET

B1: STM004 MAb (antibody, V domains shown)
VH: QVQLQQSDAELVKPGASVKISCKASGYTFSDHAIHWVKQRPEQGLEWIGCISPGSGDITYNEKFKGKATLTADKSSSTAYMQLNSLTSEDSAVYFCKRWGLDYWGQGTTLTVSS
VL: DIVLTQSPASLAVSLGQRATISCRASESVEFYGTTLMQWYQQKPGQPPRLLIYAASNVESGVPARFSGSGSGTDFSLNIHPVEDDDIAMYFCQQSRKVPYTFGGGTKLEIK
- MFI [1]: 8.7
- MFI [2]: 42.5

B2: STM073 MAb (antibody, V domains shown)
VH: EVQLVESGGALVKPGGSLKLSCAASGFTFSNSAMSWVRQTPEKRLEWVATISSAGSYTYYPDSVKGRFTISRDNAKNTLYLQMSSLRSEDTALYYCTRHYDYYFDYWGQGATLTVSS
VL: QIVLTQSPAIMSASPGEKVTLTCSASSSVSYMHWYQQKPGSSPRLVIYDTSNLASGVPVRFSGSGSGTSYSLTVSRMEAEDAATYYCQQWSDHPLTFGAGTKLELK
- MFI [1]: 12.2
- MFI [2]: 63.9

B3: STM108 MAb (antibody, V domains shown)
VH: EVMLVESGGALVKPGGSLKLSCAASGFSLSNYVMSWVRQTPEKRLEWVATISSGGRYIYYTDSVKGRFTISRDNARNTLYLQMSSLRSEDTAMYYCARDGSTLYYFDYWGQGTTLTVSS
VL: QTVLTQSPAIMSASPGEKVTMTCSASSSVDYMYWYQQKPGSSPRLLIYDTSNLASGVPVRFSGSGSGTSYSLTISRMEAEDAATYYCQQWSSSPPITFGTGTKVELK
- MFI [1]: 27.6
- MFI [2]: 117

B4: STM115 MAb (antibody, V domains shown)
VH: EVMLVESGGALVEPGGSLKLSCVASGFTFSNYAMSWVRQTPERRLEWVASITNGGTYTYYPDSVKGRFTISRDNARNTLYLQMSSLRSEDTAMYFCARPLHYYGGSHFDYWGQGTTLTVSS
VL: EIVLTQSPALMAASPGEKVTITCSVSSSISSNTLHWYQQKSEISPKPWIYGTSNLASGVPVRFSGSGSGTSYSLTISSMEAEDAATYYCQQWSSYPLTFGGGTKLEIK
- MFI [1]: 21.3
- MFI [2]: 51.1
